According to patent US20250297032A1 (CONCEPT TO MEDICINE BIOTECH, published 2025):

How the values were obtained:
[1] = target: T1, human FAPα-His tag (Sino biological) (human, UniProt Q12884 26-760); test: SPR (Biacore T200), mAb captured on Protein A chip, human FAPα-His as analyte
T1 construct: Bought protein; also called human FAPα-His protein; not shown: His tag
T1 sequence (looked up): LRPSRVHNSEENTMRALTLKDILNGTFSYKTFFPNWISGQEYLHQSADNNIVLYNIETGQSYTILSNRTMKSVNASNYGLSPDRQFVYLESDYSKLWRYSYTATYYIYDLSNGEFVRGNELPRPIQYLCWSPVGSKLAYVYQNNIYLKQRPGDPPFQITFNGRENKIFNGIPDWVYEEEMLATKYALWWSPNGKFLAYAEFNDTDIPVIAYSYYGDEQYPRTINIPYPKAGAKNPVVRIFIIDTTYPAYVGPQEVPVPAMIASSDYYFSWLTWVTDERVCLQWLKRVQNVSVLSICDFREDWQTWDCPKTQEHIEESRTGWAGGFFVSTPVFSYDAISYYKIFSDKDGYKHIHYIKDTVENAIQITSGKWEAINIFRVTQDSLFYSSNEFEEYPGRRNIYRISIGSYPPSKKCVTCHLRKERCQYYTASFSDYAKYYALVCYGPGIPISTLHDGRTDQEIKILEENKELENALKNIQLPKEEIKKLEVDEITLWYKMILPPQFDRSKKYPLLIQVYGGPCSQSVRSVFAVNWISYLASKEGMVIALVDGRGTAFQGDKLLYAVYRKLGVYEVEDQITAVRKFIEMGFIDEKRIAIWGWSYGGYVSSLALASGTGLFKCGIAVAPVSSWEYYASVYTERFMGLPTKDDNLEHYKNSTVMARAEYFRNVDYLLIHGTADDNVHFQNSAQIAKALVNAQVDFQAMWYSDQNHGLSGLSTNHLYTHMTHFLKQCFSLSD
Description: The binding of the tested antibodies to recombinant FAPα protein (human FAPα-his tag) was tested with Biacore using a capture method. The mAbs were captured using Protein A chip. A serial dilution of human FAPα-his tag protein was injected over captured antibody for 3 mins at a flow rate of 30 μl/min. The antigen was allowed to dissociate for 800s. All the experiments were carried out on a Biacore T200. Data analysis was carried out using the Biacore T200 evaluation software.

[2] = target: T1, human FAPα-His tag (Sino biological); test: competitive ELISA on coated human FAPα; biotinylated mAb alone, no competing Ab (row '0')
Description: (§1) Briefly, microtiter plates were coated with human FAPα proteins at 0.5 μg/ml in PBS, 100 μl/well at 4° C. overnight, then blocked with 150 μl/well of 1% BSA. Serial dilutions of chimeric antibodies as well as biotin-conjugated reference mAb were added to each well and incubated for 1 hour at RT. The plates were washed with PBS/Tween and then incubate with streptavidin-HRP for 15 mins at RT. After washing, the plates were developed with TMB substrate and analyzed by spectrophotometer at OD 450 nm. According to the competition ability to reference mAbs (Benchmark, or “BMK”), all tested FAPα mAbs binds to the similar epitope as shown in Table 5.

[3] = target: T1, human FAPα-His tag (Sino biological); test: competitive ELISA on coated human FAPα; competitor (detected): FAP-I37-Bio
Description: (§2) Competitive ELISA was carried out to classify the FAPα mAbs based on the binding epitope to human FAPα.
as §1

[4] = target: T1, human FAPα-His tag (Sino biological); test: ELISA, coated human FAPα-His
Description: Briefly, microtiter plates were coated with human FAPα-His protein at 0.5 ug/ml in PBS, 100 μl/well at 4° C. overnight, then blocked with 150 μl/well of 1% BSA. Three-fold dilutions of tested antibodies starting from 1 μg/ml were added to each well and incubated for 1 hour at 37° C. The plates were washed with PBS/Tween and then incubated with Anti-Human IgG (H&L) (GOAT) Antibody Peroxidase Conjugated for 30 mins at 37° C. After washing, the plates were developed with TMB substrate and analyzed by spectrophotometer at OD 450 nm. […] FAP-4B9 clone from Roche was served as positive control which labeled as FAPα-BMK.

[5] = target: T1, human FAPα-His tag (Sino biological); test: competitive ELISA on coated human FAPα; competitor (detected): FAP-I30-Bio
Description: as §1

[6] = target: T1, human FAPα-His tag (Sino biological); test: competitive ELISA on coated human FAPα; competitor (detected): FAP-J40-Bio
Description: as §1

[7] = target: T1, human FAPα-His tag (Sino biological); test: competitive ELISA on coated human FAPα; competitor (detected): FAP-G52-Bio
Description: as §1

[8] = target: T1, human FAPα-His tag (Sino biological); test: competitive ELISA on coated human FAPα; competitor (detected): FAPα (BMK)-Bio
Description: as §1

mouse FAPα-His protein = target: T2, mouse FAPα-His protein (mouse, UniProt P97321 26-761, limits assumed); test: ELISA, plate coated with mouse FAPα-His, anti-human IgG-HRP, OD 450 nm
T2 construct: not shown: His tag
T2 sequence (looked up): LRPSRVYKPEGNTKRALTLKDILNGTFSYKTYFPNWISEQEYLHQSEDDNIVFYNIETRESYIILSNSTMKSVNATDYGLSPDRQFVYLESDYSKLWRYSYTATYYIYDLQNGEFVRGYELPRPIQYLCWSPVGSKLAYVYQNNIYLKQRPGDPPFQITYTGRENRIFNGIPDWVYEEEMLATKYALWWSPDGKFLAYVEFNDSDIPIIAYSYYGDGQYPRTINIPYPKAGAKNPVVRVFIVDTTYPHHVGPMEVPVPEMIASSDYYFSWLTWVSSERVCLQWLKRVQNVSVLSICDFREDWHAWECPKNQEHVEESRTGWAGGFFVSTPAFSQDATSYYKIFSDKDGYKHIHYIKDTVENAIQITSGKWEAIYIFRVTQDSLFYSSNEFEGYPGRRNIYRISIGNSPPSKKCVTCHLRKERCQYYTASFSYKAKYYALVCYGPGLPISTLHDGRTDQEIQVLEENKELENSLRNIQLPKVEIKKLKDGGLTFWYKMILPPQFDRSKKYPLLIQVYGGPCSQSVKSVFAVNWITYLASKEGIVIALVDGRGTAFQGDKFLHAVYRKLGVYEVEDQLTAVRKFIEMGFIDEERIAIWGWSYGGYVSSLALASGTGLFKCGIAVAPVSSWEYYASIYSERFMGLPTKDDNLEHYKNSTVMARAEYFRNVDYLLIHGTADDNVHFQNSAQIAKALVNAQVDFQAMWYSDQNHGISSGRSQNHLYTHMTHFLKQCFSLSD
Description: Briefly, microtiter plates were coated with mouse FAPα-His protein at 0.5 ug/ml in PBS, 100 μl/well at 4° C. overnight, then blocked with 150 μl/well of 1% BSA. Three-fold dilutions of tested antibodies starting from 1 μg/ml were added to each well and incubated for 1 hour at 37° C. The plates were washed with PBS/Tween and then incubated with Anti-Human IgG (H&L) (GOAT) Antibody Peroxidase Conjugated for 30 mins at 37° C. After washing, the plates were developed with TMB substrate and analyzed by spectrophotometer at OD 450 nm.

[9] = target: T1, human FAPα-His tag (Sino biological); test: competitive ELISA on coated human FAPα; competitor (detected): FAP-G14-Bio
Description: as §2, §1

[10] = target: T1, human FAPα-His tag (Sino biological); test: competitive ELISA on coated human FAPα; competitor (detected): FAP-I38-Bio
Description: as §1

[11] = target: T3, human FAPα on CHO-K1-hFAPα cells (human, UniProt Q12884 1-760); test: flow cytometry on CHO-K1-hFAPα cells (MFI of PE); design: unit not given beside the values
T3 construct: whole, on cells; also called cell-surface FAPα
T3 sequence (looked up): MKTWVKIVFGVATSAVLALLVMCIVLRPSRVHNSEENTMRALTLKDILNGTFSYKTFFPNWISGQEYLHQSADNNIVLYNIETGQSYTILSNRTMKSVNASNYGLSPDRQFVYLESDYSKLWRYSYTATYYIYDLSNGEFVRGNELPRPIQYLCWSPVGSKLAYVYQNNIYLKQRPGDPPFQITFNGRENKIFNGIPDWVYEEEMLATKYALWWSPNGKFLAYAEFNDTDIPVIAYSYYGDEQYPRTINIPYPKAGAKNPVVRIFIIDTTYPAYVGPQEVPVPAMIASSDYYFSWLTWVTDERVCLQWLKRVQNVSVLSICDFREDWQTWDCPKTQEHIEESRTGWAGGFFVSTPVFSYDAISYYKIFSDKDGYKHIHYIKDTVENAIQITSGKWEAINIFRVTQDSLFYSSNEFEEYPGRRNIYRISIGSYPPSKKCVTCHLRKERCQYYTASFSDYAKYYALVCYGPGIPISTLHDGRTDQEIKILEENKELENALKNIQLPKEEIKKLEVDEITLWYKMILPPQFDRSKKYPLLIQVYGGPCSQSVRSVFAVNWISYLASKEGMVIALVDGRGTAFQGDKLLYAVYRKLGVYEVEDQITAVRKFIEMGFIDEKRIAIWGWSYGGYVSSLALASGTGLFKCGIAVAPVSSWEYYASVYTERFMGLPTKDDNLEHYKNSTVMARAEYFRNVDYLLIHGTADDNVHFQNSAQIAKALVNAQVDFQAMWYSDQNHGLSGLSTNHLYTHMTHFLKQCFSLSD
Description: (§3) To evaluate the cell-based binding property to human FAPα, the tested antibodies were analyzed for their binding to CHO-K1-hFAPα by FACS. A total number of 1×10⁵ CHO-K1-hFAPα cells in each well were incubated with 4-fold serial diluted antibodies starting from 3 μg/ml for 30 minutes at 4° C. in FACS buffer. After wash by FACS buffer, PE conjugated-anti-human IgG antibody was added to each well and incubated at 4° C. for 30 minutes. After wash, MFI of PE was evaluated by MACSQuant Analyzer 16.

[12] = target: T3, human FAPα on CHO-K1-hFAPα cells; test: flow cytometry on CHO-K1-hFAPα cells
Description: as §3

B1: G52 (antibody, V domains shown)
VH: EVQLLESGGDLVQPGGSLRLSCAASGFTFSSYAMSWVRQAPGKGLEWVSGISNGGDSIAYADSVKGRFTVFRDNAKNTLYLQMNSLRAEDTAIYYCARGNYYAHDDWGQGTLVTVSA
VL: DIQLTQSPSSVSASVGDRVTITCRASQGVGSWLAWYQQKPGKPPKLLIYAASSLQSGVPSRFSGSGSGTDFTLTISSLQPEDFATYYCQQANSFPLTFGGGTKVEIK
notes: Tested as a mAb; also called FAP-G52; FAP-G52-Bio (biotin-conjugated form)
- Kd [1]: 0.446 nM
- koff [1]: 1.81e-05 s⁻¹
- kon [1]: 40500 M⁻¹ s⁻¹
- OD 450 nm [2]: 1.26 OD 450 nm
- OD 450 nm [3]: 0.399 OD 450 nm
- EC50 [4]: 9.48 ng/mL
- OD 450 nm [5]: 0.302 OD 450 nm
- OD 450 nm [6]: 0.298 OD 450 nm
- OD 450 nm [7]: 0.283 OD 450 nm
- OD 450 nm [8]: 0.304 OD 450 nm
- binding result (mouse FAPα-His protein): no binding (tested: 1000 ng/ml)
- OD 450 nm [9]: 0.358 OD 450 nm
- OD 450 nm [10]: 0.466 OD 450 nm

B2: J59 (antibody, V domains shown)
VH: QVQLLESGGGVVQPGRSLRLSCAASGFTFSSYGMHWVRQAPGKGLEWVAVISYDGSNKYYADSVKGRFTISRDNSKNTLYLQMNSLRADDTAVYYCARESYTGLGSFLHWGQGTLVTVSA
VL: NIQLTQSPSSLSASVGDRVTITCRASQTISNYLNWYQQKPGKAPKLLISAASSLQGGVPSRFSGSGSGTDFTLAISSLQPEDSATYYCQYWGTFGQGTKLEIK
notes: Tested as a mAb
- Kd [1]: 1.78 nM
- koff [1]: 0.000594 s⁻¹
- kon [1]: 333000 M⁻¹ s⁻¹
- Cmax [11]: 149
- EC50 [12]: 0.029 ng/mL
- EC50 [4]: 3.94 ng/mL
- binding result (mouse FAPα-His protein): no binding (tested: 1000 ng/ml)

B3: I38 (antibody, V domains shown)
VH: EVQLVQSGAEVKEPGVSVKVSCKASGYTFASYGLSWVRLAPGQGLQWMGWISPYTPNPIYAPNFRDKVILTTDRSTNTAYLEVRSLRSDDTGLYYCARNHWVGRPTRAFDLWGQGTMVTVSA
VL: EIVLTQSPGTLSLSPGERATLSCRASQTVSITHLAWYQQKPGQAPRLLTYGASARATGIPDRFSVSGSGTDFTLTITRLEPEDFAVYYCQHYGSSITFGGGTKVEIK
notes: Tested as a mAb; also called FAP-I38
- Kd [1]: 1.12 nM
- koff [1]: 0.000116 s⁻¹
- kon [1]: 103000 M⁻¹ s⁻¹
- Cmax [11]: 189
- OD 450 nm [2]: 1.21 OD 450 nm
- EC50 [12]: 0.026 ng/mL
- OD 450 nm [3]: 0.282 OD 450 nm
- EC50 [4]: 4.89 ng/mL
- OD 450 nm [5]: 0.22 OD 450 nm
- OD 450 nm [6]: 0.226 OD 450 nm
- OD 450 nm [7]: 0.176 OD 450 nm
- OD 450 nm [8]: 0.154 OD 450 nm
- OD 450 nm [9]: 0.149 OD 450 nm
- OD 450 nm [10]: 0.396 OD 450 nm
